# Reference: paper PMC8395244, “The Oxoglutarate Binding Site and Regulatory Mechanism Are Conserved in Ammonium Transporter Inhibitors GlnKs from Methanococcales” (International Journal of Molecular Sciences, 2021)
# B1: GlnK1 from Methanocaldococcus jannaschii without a C-terminal tag (MjGlnK1^woT) (natural protein)
# chain: MKKVEAIIRPEKLEIVKKALSDAGYVGMTVSEVKGRGVQGGIVERYRGREYIVDLIPKVKIELVVKEEDVDNVIDIICENARTGNPGDGKIFVIPVERVVRVRTKEEGKEAL
# notes: GlnK1, PII-family protein, of Methanocaldococcus jannaschii strain DSM 2661; codon-optimised synthetic gene cloned NdeI/XhoI in pET-24b(+) with a stop codon upstream of the XhoI site, so without a tag; Produced and crystallised without a tag; the crystals came from the gel filtration pool that eluted at 66 mL; also called MjGlnK1^woT-Mg-ATP/2OG; MjGlnK1 with ATP, Mg and 2OG; source: E. coli …
# Target: the molecule itself
# Test: crystal structure; sitting drop at 18 °C; crystallised with or without 2 mM ATP, 2 mM 2OG and 2 mM MgCl2; solved by molecular replacement with PDB 2J9D
protein,measurement,value
B1,stoichiometry N,3
